# B1: human α-actinin 1 rod domain SR1–SR2–SR3–SR4 (shear–force constructs) (domain or fragment, UniProt P12814 267-745, looked up)
# chain: AVNQENEQLMEDYEKLASDLLEWIRRTIPWLENRVPENTMHAMQQKLEDFRDYRRLHKPPKVQEKCQLEINFNTLQTKLRLSNRPAFMPSEGRMVSDINNAWGCLEQVEKGYEEWLLNEIRRLERLDHLAEKFRQKASIHEAWTDGKEAMLRQKDYETATLSEIKALLKKHEAFESDLAAHQDRVEQIAAIAQELNELDYYDSPSVNARCQKICDQWDNLGALTQKRREALERTEKLLETIDQLYLEYAKRAAPFNNWMEGAMEDLQDTFIVHTIEEIQGLTTAHEQFKATLPDADKERLAILGIHNEVSKIVQTYHVNMAGTNPYTTITPQEINGKWDHVRQLVPRRDQALTEEHARQQHNERLRKQFGAQANVIGPWIQTKMEEIGRISIEMHGTLEDQLSHLRQYEKSIVNYKPKIDQLEGDHQLIQEALIFDNKHTNYTMEHIRVGWEQLLTTIARTINEVENQILTRDAKGISQ
# modifications: biotin on the AviTag (second rod of the homo-dimer construct)
# notes: human α-actinin 1 (ACTN1), central rod domain of four spectrin-like repeats SR1–SR2–SR3–SR4; a full SR rod with the helical linker region has about 480 amino acids; Stood in single-chain chimeras: Spy003–(SR1–SR4)ACTN1–(GS linker, about 170 aa)–AviTag–(SR1–SR4)ACTN1 (homo-dimer; first rod bears SpyTag003, second rod the biotinylated AviTag) and Spy003–(SR1–SR4)ACTN1–(GS …)
# B2: human α-actinin 1 SR1–SR2–SR3 (domain or fragment, UniProt P12814 267-625, looked up)
# chain: AVNQENEQLMEDYEKLASDLLEWIRRTIPWLENRVPENTMHAMQQKLEDFRDYRRLHKPPKVQEKCQLEINFNTLQTKLRLSNRPAFMPSEGRMVSDINNAWGCLEQVEKGYEEWLLNEIRRLERLDHLAEKFRQKASIHEAWTDGKEAMLRQKDYETATLSEIKALLKKHEAFESDLAAHQDRVEQIAAIAQELNELDYYDSPSVNARCQKICDQWDNLGALTQKRREALERTEKLLETIDQLYLEYAKRAAPFNNWMEGAMEDLQDTFIVHTIEEIQGLTTAHEQFKATLPDADKERLAILGIHNEVSKIVQTYHVNMAGTNPYTTITPQEINGKWDHVRQLVPRRDQALTEEHARQ
# modifications: biotin on the AviTag
# notes: human α-actinin 1 (ACTN1), spectrin-like repeats SR1–SR2–SR3 of the rod; Second half of the single-chain chimera Spy003–(SR2–SR3–SR4)ACTN1–(GS linker)–AviTag–(SR1–SR2–SR3)ACTN1; joined to m4 by the linker; also called (SR1–SR2–SR3)_(ACTN1); not shown: AviTag, N-terminal, kept
# B3: human α-actinin 4 rod domain SR1–SR2–SR3–SR4 (domain or fragment, UniProt O43707 286-764, looked up)
# chain: AVNQENEHLMEDYEKLASDLLEWIRRTIPWLEDRVPQKTIQEMQQKLEDFRDYRRVHKPPKVQEKCQLEINFNTLQTKLRLSNRPAFMPSEGKMVSDINNGWQHLEQAEKGYEEWLLNEIRRLERLDHLAEKFRQKASIHEAWTDGKEAMLKHRDYETATLSDIKALIRKHEAFESDLAAHQDRVEQIAAIAQELNELDYYDSHNVNTRCQKICDQWDALGSLTHSRREALEKTEKQLEAIDQLHLEYAKRAAPFNNWMESAMEDLQDMFIVHTIEEIEGLISAHDQFKSTLPDADREREAILAIHKEAQRIAESNHIKLSGSNPYTTVTPQIINSKWEKVQQLVPKRDHALLEEQSKQQSNEHLRRQFASQANVVGPWIQTKMEEIGRISIEMNGTLEDQLSHLKQYERSIVDYKPNLDLLEQQHQLIQEALIFDNKHTNYTMEHIRVGWEQLLTTIARTINEVENQILTRDAKGISQ
# modifications: biotin on the AviTag (second rod of the construct)
# notes: human α-actinin 4 (ACTN4), central rod domain of four spectrin-like repeats SR1–SR2–SR3–SR4; here the ACTN4 rod bears the biotinylated AviTag; also called (SR1–SR2–SR3–SR4)_(ACTN4); not shown: SpyTag003, N-terminal, kept; AviTag, N-terminal, kept
# Tests used:
# [1] = target: Entamoeba histolytica α-actinin 2 rod SR1–SR2 (Entamoeba histolytica); assay: single-molecule magnetic tweezers; shear–force geometry; the two partners on one chain joined by a long flexible GS linker, tethered via SpyTag003 to a SpyCatcher-coated coverslip and via the biotinylated AviTag to a streptavidin/neutravidin bead; linear force-increase scans (5 pN/s; 1 pN/s for SR2–SR3:SR2–SR3; 1 and 5 pN/s for E. histolytica) and force-decrease scans (−0.1 pN/s); 1× PBS, 1% BSA, 1 mM DTT, 10 mM sodium L-ascorbate, 22 ± 1 °C
# [2] = target: Entamoeba histolytica α-actinin 2 rod SR1–SR2 (Entamoeba histolytica); assay: single-molecule magnetic tweezers; shear–force geometry; same tethered single-chain constructs; force–jump cycles, dwell time until rupture at a target force, lifetime by exponential fit with bootstrap analysis; 1× PBS, 1% BSA, 1 mM DTT, 10 mM sodium L-ascorbate, 22 ± 1 °C
# [3] = target: the molecule itself; assay: as above
# [4] = target: T1, human α-actinin 1 SR2–SR3–SR4 (human, UniProt P12814 385-745); assay: as above; details: both partners purified
# T1 construct: human α-actinin 1 (ACTN1), spectrin-like repeats SR2–SR3–SR4 of the rod; First half of the single-chain chimera Spy003–(SR2–SR3–SR4)ACTN1–(GS linker)–AviTag–(SR1–SR2–SR3)ACTN1; joined to m5 by the linker; also called (SR2–SR3–SR4)_(ACTN1); not shown: SpyTag003, N-terminal, kept
# [5] = target: B1; assay: as above; details: both partners purified
molecule,measurement,setting,value
Entamoeba histolytica α-actinin 2 rod SR1–SR2 (domain or fragment),"peak rupture force (second state, 5 pN/s)",[1],20 pN
same,"peak rupture force (strongest state, 5 pN/s)",[1],33 pN
same,rupture force (third state),[1],5 pN
same,lifetime at forces <10 pN (second state),[2],> 10 s
same,lifetime at forces <10 pN (third state),[2],> 1 s
same,lifetime at forces <15 pN (strongest state),[2],> 100 s
B1,lifetime within 40 pN (shear geometry),[3],> 100 s
B2,fold decrease of the force-dependent lifetime against the full rod dimer (m1 with m1),[4],~1000 fold
B3,lifetime within 40 pN (shear geometry),[5],> 100 s
same,lifetime within 40 pN (shear geometry),[3],> 100 s

# Reference: paper PMC11271494, “Multi-domain interaction mediated strength-building in human α-actinin dimers unveiled by direct single-molecule quantification” (Nature Communications, 2024)
